In US20220073608A1 (JIANGSU HUAIYU PHARMACEUTICAL, published 2022):

T1: human SEMA4D, full length, on CHO-K1 cells (CHO-K1 hSEMA4D) (human, UniProt Q92854 22-862)
T1 construct: whole, on cells; also called human SEMA4D recombinant cells
T1 sequence (looked up): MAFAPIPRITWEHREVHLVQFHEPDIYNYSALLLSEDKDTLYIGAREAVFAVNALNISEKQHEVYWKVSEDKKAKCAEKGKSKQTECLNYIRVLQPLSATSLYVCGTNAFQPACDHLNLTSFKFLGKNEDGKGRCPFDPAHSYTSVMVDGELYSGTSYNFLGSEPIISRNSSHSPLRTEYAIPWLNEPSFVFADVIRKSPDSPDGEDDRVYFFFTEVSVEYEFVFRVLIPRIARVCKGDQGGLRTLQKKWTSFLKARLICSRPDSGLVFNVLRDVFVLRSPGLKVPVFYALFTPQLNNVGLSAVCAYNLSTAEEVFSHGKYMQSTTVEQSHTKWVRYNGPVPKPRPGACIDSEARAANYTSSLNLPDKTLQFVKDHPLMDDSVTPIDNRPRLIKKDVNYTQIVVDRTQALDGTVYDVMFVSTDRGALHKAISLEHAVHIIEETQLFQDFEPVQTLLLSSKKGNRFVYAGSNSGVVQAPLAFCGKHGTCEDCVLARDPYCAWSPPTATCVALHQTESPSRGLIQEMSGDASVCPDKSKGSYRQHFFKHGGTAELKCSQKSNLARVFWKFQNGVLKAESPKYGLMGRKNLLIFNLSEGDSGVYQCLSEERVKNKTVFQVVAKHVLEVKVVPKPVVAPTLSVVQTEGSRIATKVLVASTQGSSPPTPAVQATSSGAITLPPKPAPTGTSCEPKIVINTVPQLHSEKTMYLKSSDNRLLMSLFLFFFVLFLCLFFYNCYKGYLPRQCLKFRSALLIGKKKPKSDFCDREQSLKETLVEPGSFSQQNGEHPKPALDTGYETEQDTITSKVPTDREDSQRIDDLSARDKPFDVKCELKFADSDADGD

T2: mouse SEMA4D, full length, on CHO-K1 cells (CHO-K1 mSEMA4D) (mouse, UniProt O09126 24-861)
T2 construct: whole, on cells; also called murine SEMA4D recombinant cells
T2 sequence (looked up): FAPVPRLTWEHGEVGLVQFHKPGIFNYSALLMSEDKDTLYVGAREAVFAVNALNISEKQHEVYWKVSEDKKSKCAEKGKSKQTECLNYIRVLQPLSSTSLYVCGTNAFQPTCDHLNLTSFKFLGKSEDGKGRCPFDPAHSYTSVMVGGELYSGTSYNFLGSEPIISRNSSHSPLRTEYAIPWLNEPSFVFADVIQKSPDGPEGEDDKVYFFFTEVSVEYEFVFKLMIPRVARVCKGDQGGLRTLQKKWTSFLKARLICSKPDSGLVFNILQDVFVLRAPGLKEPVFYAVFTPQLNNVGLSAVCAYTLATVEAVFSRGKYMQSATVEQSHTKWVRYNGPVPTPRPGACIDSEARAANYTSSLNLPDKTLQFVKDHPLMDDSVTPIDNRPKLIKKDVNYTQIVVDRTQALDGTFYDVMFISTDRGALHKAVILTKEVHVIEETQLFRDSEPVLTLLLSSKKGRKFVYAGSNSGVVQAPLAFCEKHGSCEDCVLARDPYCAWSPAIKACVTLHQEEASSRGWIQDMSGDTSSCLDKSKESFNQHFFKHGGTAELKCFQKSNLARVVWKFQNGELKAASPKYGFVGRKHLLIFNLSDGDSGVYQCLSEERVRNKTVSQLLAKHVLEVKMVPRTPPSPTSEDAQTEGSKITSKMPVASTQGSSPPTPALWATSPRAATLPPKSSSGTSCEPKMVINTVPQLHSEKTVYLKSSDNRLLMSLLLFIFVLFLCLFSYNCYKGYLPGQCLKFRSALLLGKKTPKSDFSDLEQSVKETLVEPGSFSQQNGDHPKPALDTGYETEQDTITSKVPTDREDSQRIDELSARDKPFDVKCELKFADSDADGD


How the values were obtained:
[1] = target: T1, human SEMA4D, full length, on CHO-K1 …; test: FACS, CHO-K1 hSEMA4D cells; Ab 13.3 nM
Method: (§1) The medium was aspirated, the cells were washed once with PBS buffer (purchased from Invitrogen), and then treated with cell dissociation fluid (TrypLE™ Express Enzyme, purchased from Life technology), and the cells were collected. After the cells counted, the cells were washed once with PBS phosphate buffer, and diluted to 3×10⁶ cells per milliliter, and added to the 96-well FACS reaction plate as 100 μL per well. 2% (w/w) fetal calf serum was added to PBS phosphate buffer as FACS buffer, with which the cells were washed once by centrifugation at 2000 rpm 4° C. 100 μL of diluted and purified leading antibodies was added to each well and the plate was incubated for 1 hour on ice. […] Cells were washed 2 times by centrifugation with FACS buffer. The cells were suspended with 200 μL of FACS buffer, and FACS (FACS Verse, purchased from BD) was used to detect and analyze the results.

[2] = target: T1, human SEMA4D, full length, on CHO-K1 …; test: FACS, CHO-K1 hSEMA4D cells; Ab 0.000853 nM
Method: as §1

[3] = target: T2, mouse SEMA4D, full length, on CHO-K1 …; test: FACS, CHO-K1 mSEMA4D cells; Ab 0.00427 nM
Method: After the cells were counted, they were diluted with PBS to 2×10⁶ cells per milliliter. After washing, 100 μL of diluted and purified leading antibodies was added to each well and the plate was incubated for 1 hour on ice. […] Cells were washed 2 times by centrifugation with FACS buffer. The cells were suspended with 200 μL of FACS buffer, FACS (FACS Verse, purchased from BD) was used to detect and analyze the results.

Binder	MFI [1]	MFI [2]	MFI [3]
32C8F10 (antibody, V domains shown, Mouse monoclonal antibody purified from hybridoma supernatant on protein A) VH: EVQLQQSGAELVRPGASVKLSCTASGFNIKDEYIHWVKQRPEQGLEWIGWIDPANGHTEYASRFQAKATITADTSSNTAYLQLSSLTSEDTAVYYCTTGDYDGFAYWGQGTLVTVST VL: QIVLTQSPAIMSASPGEKVTISCSARSSVSYMYWYQQKPGSSPKPWIYRTSNLASGVPARFSGSGSGTSYSLTISSMEAEDAATYYCQHYHTYPYTFGGGTKLEIK	7830	47.3	30.2
37C4F7 (antibody, V domains shown, Mouse monoclonal antibody purified from hybridoma supernatant on protein A) VH: EFQLQQSGPEVVKPGASVKISCKASGYSFTDYNMNWMKQSKGKSLEWIGVINPNYGTTTYNQNFKGKATLTVDQSSSTAYMQLNSLTSEDSAVYYCARDMYYVYAYYTMDYWGQGTSVTVSS VL: DVVMTQTPLSLPVSLGDQASISCRSSQSLVHSNGHTYLHWYLQRPGQSPTLLIYKVSNRFSGVPDRFSGSGSGTDFTLKISRVEAEDLGVYFCSQGTHVPWTFGGGTKLEIK	4290	36.9	30.5
42B7G2 (antibody, V domains shown, Mouse monoclonal antibody purified from hybridoma supernatant on protein A) VH: QVQLQQSGAELARPGASVKLSCKASGYTFTDYGISWVKQRTGQGLEWIGEIYLRNDNSYYNEKFKGKATLTADKSSNTAYMELRSLTSEDSAVYFCARWGDHGNNYEDAMDYWGQGTSVTVSS VL: DIVLTQSPASLAMSLGKRATISCRASESVSIIGSNLIHWYQQKPGQPPKLLIYHASNLETGVPARFSGSGSRTDFTLTIDPVEEDDVAIYYCLQSRKVPYTFGGGTKLEIK	3950	41.2	30.3

More lines, now with the values ahead:

MFI [1]	MFI [2]	MFI [3]	Binder
6670	46.7	31.4	31C11G2 (antibody, V domains shown, Mouse monoclonal antibody purified from hybridoma supernatant on protein A) VH: EVQLQQSGAELVRPGASVKLSCTASGFNIKDEYIHWVKQRPEQGLEWIGWIDPANGHTEYASRFQAKATITADTSSNTAYLQLSSLTSEDTAVYYCTTGDYDGFVYWGQGTLVTVST VL: QIVLTQSPAIMSASPGEKVTIFCSARSSVSYMYWYQQKPGSSPKPWIYRTSNLASGVPARFSGSGSGTSYSLTISSMEAEDAATYYCQHYHTYPYTFGGGTKLEIK
6180	47	29.8	31G10C5 (antibody, V domains shown, Mouse monoclonal antibody purified from hybridoma supernatant on protein A) VH: EVQLQQSGAELVRPGASVKLSCTASGFNIKDDYIHWVKQRPEQGLEWIGWIDPANGHIEYASNFQAKATITADTSSNTAYLQLSSLTSEDTAVYYCTTGDYDGFTYWGQGTLVTVST VL: QIVLTQSPAIMSASPGEKVTISCSARSSVSYMYWYQQKPGSSPKPWIYRTSNLASGVPARFSGSGSGTSYSLTISSMEAEDAATYYCQHYHTYPYTFGGGTKLEIK
4630	36.7	29.9	38H2E3 (antibody, V domains shown, Mouse monoclonal antibody purified from hybridoma supernatant on protein A) VH: EFQLQQSGPEVVKPGASVKISCKASGYSFTDYNMNWMKQSKGKSLEWIGVISPDYGTTTYNQNFKDKATLTVDQSSSTAYMQLNSLTSEDSAVYYCAKDMYYVYAYYTMDYWGHGTSVTVSS VL: DVVMTQTPLSLPVSLGDQASISCRSSQSLVHSNGHTYLHWYLQRPGQSPTLLIYKVSNRFSGVPDRVSGSGSGTDFTLKISRVEAEDLGVYFCSQGTHVPRTFGGGTKLEIK
3960	38.2	30.1	37F11F9 (antibody, V domains shown, Mouse monoclonal antibody purified from hybridoma supernatant on protein A) VH: EVQLQQSGPVLVKPGASVKMSCKASGYTFTDYYMNWVKQSHGKSLEWIGLINPYSGGSTFNQKFKAKATLTVDKSSSSAYMDLNSLTSEDSAVYYCARVGDGYYGVTHGMDYWGQGTSVTVSS VL: DIVMTPSQKFMSTTVGDRVSITCKASQNVGTAVAWYQQKPGQSPTILIYSASNRYTGVPDRFTGSGSGTDFTLTISNMKSEDLADYFCQQYYIYPFTFAAGTKLELK
